Assay results as given in patent publication US20210196796A1 (SYNTHEKINE, published 2021).

T1: orthogonal hCD122 receptor (hoRb), hCD122 with H133D and Y134F (human, UniProt P14784 27-550)
T1 sequence: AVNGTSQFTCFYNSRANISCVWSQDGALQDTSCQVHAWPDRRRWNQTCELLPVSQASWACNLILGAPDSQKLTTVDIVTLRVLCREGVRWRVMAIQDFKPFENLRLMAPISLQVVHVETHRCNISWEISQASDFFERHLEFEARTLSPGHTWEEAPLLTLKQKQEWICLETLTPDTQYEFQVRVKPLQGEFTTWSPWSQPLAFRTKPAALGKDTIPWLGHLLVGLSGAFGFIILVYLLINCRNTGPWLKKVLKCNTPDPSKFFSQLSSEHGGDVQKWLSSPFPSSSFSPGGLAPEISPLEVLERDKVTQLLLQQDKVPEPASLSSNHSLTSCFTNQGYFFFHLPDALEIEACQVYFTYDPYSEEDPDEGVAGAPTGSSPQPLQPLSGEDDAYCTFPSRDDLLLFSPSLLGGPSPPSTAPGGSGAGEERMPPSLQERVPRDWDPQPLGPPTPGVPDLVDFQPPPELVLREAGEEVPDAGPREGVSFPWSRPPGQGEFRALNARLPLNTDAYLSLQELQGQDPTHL


Legend:
[1] = target: T1, orthogonal hCD122 receptor (hoRb), …; experiment: cell-based or functional assay
[2] = target: T1, orthogonal hCD122 receptor (hoRb), …; experiment: cell-based or functional assay; remark: listed apart in the source
Wherever Relative Proliferation Fold Change 3F8 1:10 is given: reference of the scale not given here.
Wherever Relative Proliferation Fold Change 3F8 1:2 is given: reference of the scale not given here.
Wherever Relative Proliferation Fold Change 3F8 1:50 is given: reference of the scale not given here.
Wherever Relative Proliferation Fold Change NKL 1:10 is given: reference of the scale not given here.
Wherever Relative Proliferation Fold Change NKL 1:2 is given: reference of the scale not given here.
Wherever Relative Proliferation Fold Change NKL 1:50 is given: reference of the scale not given here.

Binder | 3F8 Ortho Proliferation Signal 1:2 [1] [cts/min] | 3F8 Ortho Proliferation Signal 1:10 [1] [cts/min] | 3F8 Ortho Proliferation Signal 1:50 [1] [cts/min] | Relative Proliferation Fold Change 3F8 1:2 [1] [fold] | Relative Proliferation Fold Change 3F8 1:10 [1] [fold] | Relative Proliferation Fold Change 3F8 1:50 [1] [fold] | NKL Ortho Proliferation Signal 1:2 [2] | NKL Ortho Proliferation Signal 1:10 [2] | NKL Ortho Proliferation Signal 1:50 [2] | Relative Proliferation Fold Change NKL 1:2 [2] [fold] | Relative Proliferation Fold Change NKL 1:10 [2] [fold] | Relative Proliferation Fold Change NKL 1:50 [2] [fold]
SQVLKY (ligand) APTSSSTKKTQLQLSQLLVLLKYILNGINNYKNPKLTRMLTFKFYMPKKATELKHLQCLEEELKPLEEVLNLAQSKNFHLRPRDLISNINVIVLELKGSETTFMCEYADETATIVEFLNRWITFCQSIISTLT | 39100 | 50600 | 24600 | 29.5 | 50 | 30.3 | 52400 | 43800 | 21900 | 3.51 | 2.64 | 1.38
SQVLKV (ligand) APTSSSTKKTQLQLSQLLVLLKVILNGINNYKNPKLTRMLTFKFYMPKKATELKHLQCLEEELKPLEEVLNLAQSKNFHLRPRDLISNINVIVLELKGSETTFMCEYADETATIVEFLNRWITFCQSIISTLT | 45300 | 53000 | 21000 | 36.1 | 29.1 | 20.8 | 63400 | 66100 | 29900 | 4.61 | 4.15 | 2
SQVLKQ (ligand) APTSSSTKKTQLQLSQLLVLLKQILNGINNYKNPKLTRMLTFKFYMPKKATELKHLQCLEEELKPLEEVLNLAQSKNFHLRPRDLISNINVIVLELKGSETTFMCEYADETATIVEFLNRWITFCQSIISTLT | 45700 | 64000 | 33100 | 31.1 | 20 | 29.5 | 74300 | 82000 | 49600 | 4.43 | 4.61 | 3.05
G27K, SQVLKA (ligand) APTSSSTKKTQLQLSQLLVLLKAILNKINNYKNPKLTRMLTFKFYMPKKATELKHLQCLEEELKPLEEVLNLAQSKNFHLRPRDLISNINVIVLELKGSETTFMCEYADETATIVEFLNRWITFCQSIISTLT | 37800 | 23700 | 10300 | 170 | 47.9 | 7.82 | 36300 | 30600 | 15200 | 2.93 | 1.94 | 1.03
SQVLKT (ligand) APTSSSTKKTQLQLSQLLVLLKTILNGINNYKNPKLTRMLTFKFYMPKKATELKHLQCLEEELKPLEEVLNLAQSKNFHLRPRDLISNINVIVLELKGSETTFMCEYADETATIVEFLNRWITFCQSIISTLT | 46400 | 54400 | 28500 | 22.9 | 54.9 | 37.8 | 61400 | 63400 | 33400 | 4.68 | 4.52 | 2.5
SQVLKF (ligand) APTSSSTKKTQLQLSQLLVLLKFILNGINNYKNPKLTRMLTFKFYMPKKATELKHLQCLEEELKPLEEVLNLAQSKNFHLRPRDLISNINVIVLELKGSETTFMCEYADETATIVEFLNRWITFCQSIISTLT | 42100 | 48500 | 21000 | 42.8 | 48.8 | 17.4 | 65100 | 44700 | 23200 | 3.54 | 2.5 | 1.43
SQVLKS (ligand) APTSSSTKKTQLQLSQLLVLLKSILNGINNYKNPKLTRMLTFKFYMPKKATELKHLQCLEEELKPLEEVLNLAQSKNFHLRPRDLISNINVIVLELKGSETTFMCEYADETATIVEFLNRWITFCQSIISTLT | 43800 | 55500 | 26600 | 90.8 | 58.3 | 24.2 | 56200 | 59400 | 29000 | 4.79 | 3.99 | 2.11
SQVLKL (ligand) APTSSSTKKTQLQLSQLLVLLKLILNGINNYKNPKLTRMLTFKFYMPKKATELKHLQCLEEELKPLEEVLNLAQSKNFHLRPRDLISNINVIVLELKGSETTFMCEYADETATIVEFLNRWITFCQSIISTLT | 40200 | 37000 | 8930 | 43 | 15.3 | 5.43 | 59700 | 67100 | 32700 | 4.69 | 4.38 | 2.26
ΔQ13, SQVLKA (ligand) APTSSSTKKTQLLSQLLVLLKAILNGINNYKNPKLTRMLTFKFYMPKKATELKHLQCLEEELKPLEEVLNLAQSKNFHLRPRDLISNINVIVLELKGSETTFMCEYADETATIVEFLNRWITFCQSIISTLT | 37600 | 26100 | 12400 | 102 | 23.7 | 7.63 | 26700 | 20700 | 11800 | 2.06 | 1.39 | 0.79
ΔG27, SQVLKA (ligand) APTSSSTKKTQLQLSQLLVLLKAILNINNYKNPKLTRMLTFKFYMPKKATELKHLQCLEEELKPLEEVLNLAQSKNFHLRPRDLISNINVIVLELKGSETTFMCEYADETATIVEFLNRWITFCQSIISTLT | 28400 | 21900 | 6730 | 105 | 30.4 | 10.2 | 46600 | 31400 | 14600 | 3.29 | 2.05 | 1.04
